Patent US20180155450A1 (Sanofi, published 2018)
Residue numbers refer to the chain shown, from its start. Names may count otherwise. Like-named read-outs stand apart in the source and are kept apart here. One block for each binder: values may come before it.

Columns and labels:
[1] = target: T1, recombinant human IL4 (human, UniProt P05112 25-153); assay: cell-based or functional assay
T1 sequence (looked up): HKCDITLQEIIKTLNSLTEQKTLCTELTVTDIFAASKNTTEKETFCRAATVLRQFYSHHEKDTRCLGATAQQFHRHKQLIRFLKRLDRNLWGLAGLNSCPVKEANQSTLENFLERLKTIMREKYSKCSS

[2] = target: T1, recombinant human IL4; assay: SPR (Biacore 3000), antibody captured, antigen as analyte
Method: (§1) Kinetic binding analysis by Biacore was performed as follows. Surface plasmon resonance technology on a Biacore 3000 (GE Healthcare) was used for detailed kinetic characterization of purified antibodies. […] Chip surfaces were regenerated with 10 mM glycine pH 2.5. Kinetic parameters were analyzed and calculated in the BIAevaluation program package v4.1 using a flow cell without captured antibody as a reference.

[3] = target: T1, recombinant human IL4; assay: cell-based or functional assay; remark: listed apart in the source
[4] = target: T1, recombinant human IL4; assay: SPR (Biacore 3000), antibody captured, antigen as analyte; remark: listed apart in the source
Method: as §1

[5] = target: T1, recombinant human IL4; assay: cell-based or functional assay; remark: listed apart in the source
[6] = target: T1, recombinant human IL4; assay: SPR (Biacore 3000), antibody captured, antigen as analyte; remark: listed apart in the source
Method: as §1

[7] = target: T2, recombinant human IL4 (human, UniProt P05112 25-153); assay: SPR, Biacore 3000; CODV-Ig captured by anti-human Fc, antigen as analyte
T2 construct: also called Antigen1
T2 sequence (looked up): T1 sequence (looked up)
Method: as §1

[8] = target: T3, recombinant human IL13 (human, UniProt P35225 35-146, limits assumed); assay: as above
T3 construct: also called Antigen2
T3 sequence (P35225 35-146 limits assumed): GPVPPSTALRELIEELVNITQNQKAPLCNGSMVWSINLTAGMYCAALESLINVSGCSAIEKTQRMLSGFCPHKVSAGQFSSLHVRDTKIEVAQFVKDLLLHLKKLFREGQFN
Method: as §1

[9] = target: T2, recombinant human IL4; assay: kinetic table drawn in the figure; assay not named in Example 9, parental rows equal the BIACORE values of Table 6
[10] = target: T2, recombinant human IL4; assay: SPR, BIACORE 3000; antibody captured by anti-human Fc, antigen 0-25 nM as analyte
Method: Kinetic characterization of purified antibodies was performed using surface plasmon resonance technology on a BIACORE 3000 (GE Healthcare). […] Chip surfaces were regenerated with 10 mM glycine, pH 2.5. Kinetic parameters were analyzed and calculated in the BIAevaluation program package v4.1 using a flow cell without captured antibody as reference.

B1: CODV-Ig Batch ID 508 (IL4 × IL13 on HC; L1 HIDSPNK, L2 QRIEG, L3 V, L4 SL) (bispecific antibody)
heavy: not shown
light: DIVLTQSPASLAVSLGQRATISCRASESVDSYGQSYMHWYQQKAGQPPKLLIYLASNLESGVPARFSGSGSRTDFTLTIDPVQAEDAATYYCQQNAEDSRTFGGGTKLEIKHIDSPNKDIQMTQSPASLSVSVGDTITLTCHASQNIDVWLSWFQQKPGNIPKLLIYKASNLHTGVPSRFSGSGSGTGFTLTISSLQPEDIATYYCQQAHSYPFTFGGGTKLEIKQRIEGRTVAAPSVFIFPPSDEQLKSGTASVVCLLNNFYPREAKVQWKVDNALQSGNSQESVTEQDSKDSTYSLSSTLTLSKADYEKHKVYACEVTHQGLSSPVTKSFNRGEC
IC50 Cellular Assay IL4 [nM] (HEK-Blue IL-4/IL-13 reporter cells, SEAP) [1]: 0.054 nM | Kd [2]: 1 pM

B5: CODV-Ig Batch ID 803 (Batch ID 204 with LC G115C, HC Q43C) (bispecific antibody)
heavy: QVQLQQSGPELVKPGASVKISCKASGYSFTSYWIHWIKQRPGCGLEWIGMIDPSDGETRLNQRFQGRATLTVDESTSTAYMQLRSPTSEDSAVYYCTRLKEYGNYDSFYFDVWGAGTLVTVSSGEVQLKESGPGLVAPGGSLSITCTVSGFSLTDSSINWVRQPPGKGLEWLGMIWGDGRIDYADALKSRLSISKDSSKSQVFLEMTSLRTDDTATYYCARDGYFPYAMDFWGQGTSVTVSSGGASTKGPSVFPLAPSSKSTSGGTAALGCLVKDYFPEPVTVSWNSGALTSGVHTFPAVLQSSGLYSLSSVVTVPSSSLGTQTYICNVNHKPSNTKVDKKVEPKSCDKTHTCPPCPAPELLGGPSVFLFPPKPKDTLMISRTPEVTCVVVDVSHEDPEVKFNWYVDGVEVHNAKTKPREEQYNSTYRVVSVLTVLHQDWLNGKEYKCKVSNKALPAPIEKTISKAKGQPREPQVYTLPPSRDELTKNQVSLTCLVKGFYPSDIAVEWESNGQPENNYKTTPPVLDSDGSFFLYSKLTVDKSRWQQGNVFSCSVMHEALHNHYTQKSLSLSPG
light: DIVLTQSPASLAVSLGQRATISCRASESVDSYGQSYMHWYQQKAGQPPKLLIYLASNLESGVPARFSGSGSRTDFTLTIDPVQAEDAATYYCQQNAEDSRTFGGGTKLEIKGGGCGGGDIQMTQSPASLSVSVGDTITLTCHASQNIDVWLSWFQQKPGNIPKLLIYKASNLHTGVPSRFSGSGSGTGFTLTISSLQPEDIATYYCQQAHSYPFTFGGGTKLEIKGGGGGRTVAAPSVFIFPPSDEQLKSGTASVVCLLNNFYPREAKVQWKVDNALQSGNSQESVTEQDSKDSTYSLSSTLTLSKADYEKHKVYACEVTHQGLSSPVTKSFNRGEC
modifications: Engineered cysteine pair LC C115 (in L1) and HC C43, intended inter-chain disulfide.
notes: The mutation numbers are read as counts along the whole chain: G115C lies in L1 as printed; Q43C lies in the N-terminal anti-IL4 VH
IC50 Cellular Assay IL4 [nM] (HEK-Blue IL-4/IL-13 reporter cells, SEAP) [5]: 0.036 nM | Kd [6]: 6 pM

B6: CODV-Ig Batch ID 802 (Batch ID 204 with LC G114C, HC Q43C) (bispecific antibody)
heavy: not shown
light: B5 light with G114C, C115G
modifications: Engineered cysteine pair LC C114 (in L1) and HC C43, intended inter-chain disulfide.
notes: The mutation numbers are read as counts along the whole chain: G114C lies in L1 as printed; Q43C lies in the N-terminal anti-IL4 VH
IC50 Cellular Assay IL4 [nM] (HEK-Blue IL-4/IL-13 reporter cells, SEAP) [5]: 0.027 nM | Kd [6]: 6 pM

B8: CODV-Ig Batch ID 506 (IL4 × IL13 on HC; L1 GQPKAAP, L2 TVAAP, L3 S, L4 TK) (bispecific antibody)
heavy: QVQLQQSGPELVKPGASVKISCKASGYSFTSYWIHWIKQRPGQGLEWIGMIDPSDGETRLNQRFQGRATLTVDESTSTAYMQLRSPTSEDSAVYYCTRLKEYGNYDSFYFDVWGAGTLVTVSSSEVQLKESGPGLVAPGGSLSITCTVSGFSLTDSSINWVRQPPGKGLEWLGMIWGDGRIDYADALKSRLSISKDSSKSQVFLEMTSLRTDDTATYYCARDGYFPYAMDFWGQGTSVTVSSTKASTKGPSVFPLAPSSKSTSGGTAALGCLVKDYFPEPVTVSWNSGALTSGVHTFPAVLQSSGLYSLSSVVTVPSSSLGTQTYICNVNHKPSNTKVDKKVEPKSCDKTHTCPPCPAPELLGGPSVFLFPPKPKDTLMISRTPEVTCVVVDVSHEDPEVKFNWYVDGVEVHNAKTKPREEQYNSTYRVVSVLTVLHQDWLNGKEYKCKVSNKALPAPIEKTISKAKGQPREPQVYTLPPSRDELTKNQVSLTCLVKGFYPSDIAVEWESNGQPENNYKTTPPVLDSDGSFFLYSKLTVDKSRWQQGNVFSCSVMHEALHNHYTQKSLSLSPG
light: DIVLTQSPASLAVSLGQRATISCRASESVDSYGQSYMHWYQQKAGQPPKLLIYLASNLESGVPARFSGSGSRTDFTLTIDPVQAEDAATYYCQQNAEDSRTFGGGTKLEIKGQPKAAPDIQMTQSPASLSVSVGDTITLTCHASQNIDVWLSWFQQKPGNIPKLLIYKASNLHTGVPSRFSGSGSGTGFTLTISSLQPEDIATYYCQQAHSYPFTFGGGTKLEIKTVAAPRTVAAPSVFIFPPSDEQLKSGTASVVCLLNNFYPREAKVQWKVDNALQSGNSQESVTEQDSKDSTYSLSSTLTLSKADYEKHKVYACEVTHQGLSSPVTKSFNRGEC
IC50 Cellular Assay IL4 [nM] (HEK-Blue IL-4/IL-13 reporter cells, SEAP) [1]: 0.045 nM | Kd [2]: 7 pM

B9: CODV-Ig Batch ID 503 (IL4 × IL13 on HC; L1 ASTKGPS, L2 TVAAP, L3 S, L4 SS) (bispecific antibody)
heavy: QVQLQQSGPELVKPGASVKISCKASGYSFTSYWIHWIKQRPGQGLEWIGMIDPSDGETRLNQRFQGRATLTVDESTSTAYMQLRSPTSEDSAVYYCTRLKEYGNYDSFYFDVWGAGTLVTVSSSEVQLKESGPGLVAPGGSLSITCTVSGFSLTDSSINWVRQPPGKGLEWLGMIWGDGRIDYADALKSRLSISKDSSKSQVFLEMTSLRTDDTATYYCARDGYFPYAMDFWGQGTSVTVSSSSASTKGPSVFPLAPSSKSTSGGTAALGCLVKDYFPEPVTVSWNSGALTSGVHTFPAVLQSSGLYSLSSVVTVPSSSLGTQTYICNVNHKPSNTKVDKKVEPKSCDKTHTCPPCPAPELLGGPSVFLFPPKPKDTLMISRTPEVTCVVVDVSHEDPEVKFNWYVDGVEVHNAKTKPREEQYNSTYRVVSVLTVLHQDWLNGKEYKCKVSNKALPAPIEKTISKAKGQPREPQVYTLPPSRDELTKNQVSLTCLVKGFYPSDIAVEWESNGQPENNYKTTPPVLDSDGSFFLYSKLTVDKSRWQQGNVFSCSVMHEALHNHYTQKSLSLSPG
light: B8 light with G112A, Q113S, P114T, A116G, A117P, P118S
IC50 Cellular Assay IL4 [nM] (HEK-Blue IL-4/IL-13 reporter cells, SEAP) [1]: 0.047 nM | Kd [2]: 3 pM

B10: CODV-Ig Batch ID 505 (IL4 × IL13 on HC; L1 GQPKAAP, L2 TKGPS, L3 S, L4 RT) (bispecific antibody)
heavy: not shown
light: B8 light with V227K, A228G, A229P, P230S
IC50 Cellular Assay IL4 [nM] (HEK-Blue IL-4/IL-13 reporter cells, SEAP) [1]: 0.033 nM | Kd [2]: 6 pM

B11: CODV-Ig Batch ID 504 (IL4 × IL13 on HC; L1 RTVAAPS, L2 QPKAA, L3 S, L4 TK) (bispecific antibody)
heavy: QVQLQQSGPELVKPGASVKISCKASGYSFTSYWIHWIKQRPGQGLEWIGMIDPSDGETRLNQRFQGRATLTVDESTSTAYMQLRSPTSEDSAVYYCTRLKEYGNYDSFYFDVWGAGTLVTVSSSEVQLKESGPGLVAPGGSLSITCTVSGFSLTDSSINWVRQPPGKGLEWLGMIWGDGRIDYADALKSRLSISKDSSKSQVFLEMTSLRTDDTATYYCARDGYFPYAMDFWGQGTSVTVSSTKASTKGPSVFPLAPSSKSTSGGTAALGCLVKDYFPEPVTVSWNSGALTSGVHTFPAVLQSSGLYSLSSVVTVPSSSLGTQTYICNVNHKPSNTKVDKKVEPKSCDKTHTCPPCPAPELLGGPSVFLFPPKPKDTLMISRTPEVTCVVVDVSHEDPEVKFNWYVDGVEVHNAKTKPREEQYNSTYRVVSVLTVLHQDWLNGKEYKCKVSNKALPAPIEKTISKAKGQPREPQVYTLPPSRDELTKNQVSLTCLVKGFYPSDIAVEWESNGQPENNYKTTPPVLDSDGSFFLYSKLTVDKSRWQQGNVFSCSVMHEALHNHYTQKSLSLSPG
light: B8 light with G112R, Q113T, P114V, K115A, A117P, P118S, T226Q, V227P, A228K, P230A
IC50 Cellular Assay IL4 [nM] (HEK-Blue IL-4/IL-13 reporter cells, SEAP) [1]: 0.042 nM | Kd [2]: 8 pM

B14: CODV-Ig Batch ID 507 (IL4 × IL13 on HC; L1 GQPKAAP, L2 QPKAA, L3 S, L4 RT) (bispecific antibody)
heavy: not shown
light: B8 light with T226Q, V227P, A228K, P230A
IC50 Cellular Assay IL4 [nM] (HEK-Blue IL-4/IL-13 reporter cells, SEAP) [1]: 0.04 nM | Kd [2]: 1 pM

B15: CODV-Ig Batch ID 129 (IL4 × IL13 on LC; L1=1, L2=3, L3=2, L4=4) (bispecific antibody)
chain 1: not shown
chain 2: DIQMTQSPASLSVSVGDTITLTCHASQNIDVWLSWFQQKPGNIPKLLIYKASNLHTGVPSRFSGSGSGTGFTLTISSLQPEDIATYYCQQAHSYPFTFGGGTKLEIKGDIVLTQSPASLAVSLGQRATISCRASESVDSYGQSYMHWYQQKAGQPPKLLIYLASNLESGVPARFSGSGSRTDFTLTIDPVQAEDAATYYCQQNAEDSRTFGGGTKLEIKGGGRTVAAPSVFIFPPSDEQLKSGTASVVCLLNNFYPREAKVQWKVDNALQSGNSQESVTEQDSKDSTYSLSSTLTLSKADYEKHKVYACEVTHQGLSSPVTKSFNRGEC
Kd [7]: 5 pM | Kd [8]: 70 pM

B16: TBTI/DVD-Ig molecule incorporating anti-IL4 and anti-IL13 sequences (FIG. 7, upper panel) (bispecific antibody)
heavy: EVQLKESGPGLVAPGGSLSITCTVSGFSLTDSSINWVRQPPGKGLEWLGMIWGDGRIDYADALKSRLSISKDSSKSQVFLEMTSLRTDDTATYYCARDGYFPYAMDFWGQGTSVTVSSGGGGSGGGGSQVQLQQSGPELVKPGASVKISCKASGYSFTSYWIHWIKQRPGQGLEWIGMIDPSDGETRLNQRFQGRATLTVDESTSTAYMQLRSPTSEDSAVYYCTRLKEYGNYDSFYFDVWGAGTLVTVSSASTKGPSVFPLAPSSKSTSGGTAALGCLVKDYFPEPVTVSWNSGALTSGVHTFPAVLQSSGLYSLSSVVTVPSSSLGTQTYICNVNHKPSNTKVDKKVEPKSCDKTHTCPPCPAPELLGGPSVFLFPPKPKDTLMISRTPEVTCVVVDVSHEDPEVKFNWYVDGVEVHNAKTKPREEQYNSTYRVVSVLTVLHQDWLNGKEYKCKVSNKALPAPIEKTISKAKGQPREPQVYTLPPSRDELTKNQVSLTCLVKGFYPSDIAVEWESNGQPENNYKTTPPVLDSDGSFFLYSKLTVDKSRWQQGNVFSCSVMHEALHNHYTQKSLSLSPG
light: DIVLTQSPASLAVSLGQRATISCRASESVDSYGQSYMHWYQQKAGQPPKLLIYLASNLESGVPARFSGSGSRTDFTLTIDPVQAEDAATYYCQQNAEDSRTFGGGTKLEIKGGGGSGGGGSDIQMTQSPASLSVSVGDTITLTCHASQNIDVWLSWFQQKPGNIPKLLIYKASNLHTGVPSRFSGSGSGTGFTLTISSLQPEDIATYYCQQAHSYPFTFGGGTKLEIKRTVAAPSVFIFPPSDEQLKSGTASVVCLLNNFYPREAKVQWKVDNALQSGNSQESVTEQDSKDSTYSLSSTLTLSKADYEKHKVYACEVTHQGLSSPVTKSFNRGEC
notes: also called TBTI/DVD-Ig format
Kd [9]: 26.3 pM | koff [9]: 0.00015 s⁻¹ | kon [9]: 5.7e+06 M⁻¹ s⁻¹

B17: parental anti-IL4 mAb (antibody, V domains shown)
VH: QVQLQQSGPELVKPGASVKISCKASGYSFTSYWIHWIKQRPGQGLEWIGMIDPSDGETRLNQRFQGRATLTVDESTSTAYMQLRSPTSEDSAVYYCTRLKEYGNYDSFYFDVWGAGTLVTVSS
VL: DIQMTQSPASLSVSVGDTITLTCHASQNIDVWLSWFQQKPGNIPKLLIYKASNLHTGVPSRFSGSGSGTGFTLTISSLQPEDIATYYCQQAHSYPFTFGGGTKLEIKR
notes: also called parental humanized anti-IL4; 8D4
Kd [10]: 7.83 pM | koff [10]: 0.000195 s⁻¹ | kon [10]: 2.49e+07 M⁻¹ s⁻¹

The next lines start with the values.

IC50 Cellular Assay IL4 [nM] (HEK-Blue IL-4/IL-13 reporter cells, SEAP) [3]: 0.034 nM | Kd [4]: 10 pM
B2: CODV-Ig Batch ID 602 (Batch ID 204 with S376C & P397C in IGHG1) (bispecific antibody)
heavy: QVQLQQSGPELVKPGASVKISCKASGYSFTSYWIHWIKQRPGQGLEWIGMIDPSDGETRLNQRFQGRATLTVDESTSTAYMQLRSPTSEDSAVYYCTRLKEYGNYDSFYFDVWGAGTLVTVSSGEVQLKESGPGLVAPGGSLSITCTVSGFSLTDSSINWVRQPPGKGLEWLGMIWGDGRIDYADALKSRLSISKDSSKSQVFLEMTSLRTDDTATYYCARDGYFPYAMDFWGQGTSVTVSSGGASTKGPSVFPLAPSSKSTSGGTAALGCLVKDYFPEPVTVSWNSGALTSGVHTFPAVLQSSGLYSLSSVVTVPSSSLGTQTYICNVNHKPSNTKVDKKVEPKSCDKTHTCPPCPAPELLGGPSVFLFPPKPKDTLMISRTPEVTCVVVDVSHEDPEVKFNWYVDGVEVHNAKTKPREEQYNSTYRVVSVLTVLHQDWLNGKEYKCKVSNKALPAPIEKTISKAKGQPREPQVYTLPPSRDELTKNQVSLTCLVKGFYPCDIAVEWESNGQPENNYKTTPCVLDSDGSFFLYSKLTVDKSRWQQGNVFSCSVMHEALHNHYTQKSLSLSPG
light: B5 light with C115G
modifications: Engineered cysteine pair in CH3 (intended intradomain disulfide C376-C397, patent's count).
notes: The mutation numbers are those of the column 'Introduced Mutations IGHG1'

IC50 Cellular Assay IL4 [nM] (HEK-Blue IL-4/IL-13 reporter cells, SEAP) [3]: 0.036 nM | Kd [4]: 4 pM
B3: CODV-Ig Batch ID 603 (Batch ID 204 with P446G447 to G446E447C448 in IGHG1) (bispecific antibody)
heavy: QVQLQQSGPELVKPGASVKISCKASGYSFTSYWIHWIKQRPGQGLEWIGMIDPSDGETRLNQRFQGRATLTVDESTSTAYMQLRSPTSEDSAVYYCTRLKEYGNYDSFYFDVWGAGTLVTVSSGEVQLKESGPGLVAPGGSLSITCTVSGFSLTDSSINWVRQPPGKGLEWLGMIWGDGRIDYADALKSRLSISKDSSKSQVFLEMTSLRTDDTATYYCARDGYFPYAMDFWGQGTSVTVSSGGASTKGPSVFPLAPSSKSTSGGTAALGCLVKDYFPEPVTVSWNSGALTSGVHTFPAVLQSSGLYSLSSVVTVPSSSLGTQTYICNVNHKPSNTKVDKKVEPKSCDKTHTCPPCPAPELLGGPSVFLFPPKPKDTLMISRTPEVTCVVVDVSHEDPEVKFNWYVDGVEVHNAKTKPREEQYNSTYRVVSVLTVLHQDWLNGKEYKCKVSNKALPAPIEKTISKAKGQPREPQVYTLPPSRDELTKNQVSLTCLVKGFYPSDIAVEWESNGQPENNYKTTPPVLDSDGSFFLYSKLTVDKSRWQQGNVFSCSVMHEALHNHYTQKSLSLSGEC
light: B5 light with C115G
notes: C-terminal change P446G447 to G446E447C448

IC50 Cellular Assay IL4 [nM] (HEK-Blue IL-4/IL-13 reporter cells, SEAP) [5]: 0.047 nM | Kd [6]: 7 pM
B4: CODV-Ig Batch ID 805 (Batch ID 204 with LC G117C, HC Q43C) (bispecific antibody)
heavy: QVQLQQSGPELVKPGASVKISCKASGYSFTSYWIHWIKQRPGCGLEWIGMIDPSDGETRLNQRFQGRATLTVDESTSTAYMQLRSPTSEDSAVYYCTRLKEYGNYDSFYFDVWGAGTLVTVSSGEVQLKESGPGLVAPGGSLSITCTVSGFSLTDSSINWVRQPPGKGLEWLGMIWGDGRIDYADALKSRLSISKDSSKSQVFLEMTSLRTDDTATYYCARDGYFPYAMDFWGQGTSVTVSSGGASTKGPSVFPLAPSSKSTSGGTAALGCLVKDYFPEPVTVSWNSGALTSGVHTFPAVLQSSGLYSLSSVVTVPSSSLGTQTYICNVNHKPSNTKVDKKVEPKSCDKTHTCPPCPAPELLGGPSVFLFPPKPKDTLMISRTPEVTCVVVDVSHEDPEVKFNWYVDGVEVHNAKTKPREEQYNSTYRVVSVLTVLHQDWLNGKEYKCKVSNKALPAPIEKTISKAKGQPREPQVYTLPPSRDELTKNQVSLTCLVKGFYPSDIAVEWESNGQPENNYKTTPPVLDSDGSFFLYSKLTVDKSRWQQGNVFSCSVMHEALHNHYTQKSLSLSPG
light: B5 light with C115G, G117C
notes: The mutation numbers are read as counts along the whole chain: G117C lies in L1 as printed; Q43C lies in the N-terminal anti-IL4 VH

IC50 Cellular Assay IL4 [nM] (HEK-Blue IL-4/IL-13 reporter cells, SEAP) [5]: 0.04 nM | Kd [6]: 2 pM
B7: CODV-Ig Batch ID 804 (Batch ID 204 with LC G116C, HC Q43C) (bispecific antibody)
heavy: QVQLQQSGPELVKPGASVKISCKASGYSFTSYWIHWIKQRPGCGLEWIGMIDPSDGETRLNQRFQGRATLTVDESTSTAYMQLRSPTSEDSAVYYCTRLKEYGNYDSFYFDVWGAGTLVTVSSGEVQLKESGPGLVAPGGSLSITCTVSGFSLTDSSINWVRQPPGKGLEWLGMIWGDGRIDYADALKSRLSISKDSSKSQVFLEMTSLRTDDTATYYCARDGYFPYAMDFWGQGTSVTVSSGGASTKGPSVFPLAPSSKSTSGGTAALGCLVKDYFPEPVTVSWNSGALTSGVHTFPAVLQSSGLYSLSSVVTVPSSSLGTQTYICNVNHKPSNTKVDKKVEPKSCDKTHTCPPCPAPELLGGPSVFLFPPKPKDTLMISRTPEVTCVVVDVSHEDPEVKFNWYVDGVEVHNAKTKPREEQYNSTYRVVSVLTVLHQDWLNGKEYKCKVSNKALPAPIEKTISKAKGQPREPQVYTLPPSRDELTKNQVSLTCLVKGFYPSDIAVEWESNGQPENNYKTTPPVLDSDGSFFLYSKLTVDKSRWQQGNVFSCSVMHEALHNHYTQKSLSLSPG
light: B5 light with C115G, G116C
modifications: Engineered cysteine pair LC C116 (in L1) and HC C43, intended inter-chain disulfide.
notes: The mutation numbers are read as counts along the whole chain: G116C lies in L1 as printed; Q43C lies in the N-terminal anti-IL4 VH

IC50 Cellular Assay IL4 [nM] (HEK-Blue IL-4/IL-13 reporter cells, SEAP) [1]: 0.049 nM | Kd [2]: 3 pM
B12: CODV-Ig Batch ID 502 (IL4 × IL13 on HC; L1 ASTKGPS, L2 TVAAP, L3 S, L4 QP) (bispecific antibody)
heavy: not shown
light: B8 light with G112A, Q113S, P114T, A116G, A117P, P118S

IC50 Cellular Assay IL4 [nM] (HEK-Blue IL-4/IL-13 reporter cells, SEAP) [1]: 0.034 nM | Kd [2]: 1 pM
B13: CODV-Ig Batch ID 501 (IL4 × IL13 on HC; L1 ASTKGPS, L2 TKGPS, L3 S, L4 RT) (bispecific antibody)
heavy: not shown
light: B5 light with G112A, G113S, G114T, C115K, G117P, G118S, G226T, G227K, G229P, G230S
